Source: US20250277029A1 (Amgen, published 2025)
Where a chain is given by its changes, count along the chain named.

B1: LIBC527869-1 (antibody, V domains shown)
VH: QVQLQESGPGLVKPSQTLSLTCTVSGGNIRRGGDYWAWIRQHPGKGLEWIGHIYHTGKTNYNPSFKGRATISVKTYKNQFSLKLSSVTAADTAVYYCARNYDTLSGNSYYYYGMDVWGQGTTVTVSS
VL: DIQLTQSPSTLSASVGDRVTITCRASQSISNYLNWYQQKPGKAPKLLIYAASSLHSGVPSRFSGSGSGTDFTLTISSLQPEDFASYYCQQYQSYPLTFGQGTKVEIKR
B2: LIBC527912-1 (antibody, V domains shown)
VH: QVQLQESGPGLVKPSQTLSLTCTVSGGSIRRGGDYWSWIRQHPGKGLEWIGYIYQTGQTKYNPNFEGRATISVNTYKNQFSLKLSSVTAADTAVYYCARDYDILTGYSYYYYGMDVWGQGTTVTVSS
VL: B1 VL with T10S, N31S, H55R, S85T, Q92S, S93N, Q100G, K103R
B3: LIBC528169-1 (antibody, V domains shown)
VH: B2 VH with Y52H, T56S, Q58S, N64S, G67D
VL: B1 VL
B4: LIBC527879-1 (antibody, V domains shown)
VH: QVQLQESGPGLVKPSQTLSLTCTVSGGSIRRGGDYWGWIRQHPGKGLEWIGHIYQSGSTNYNPKLKSRATISVDTYKNQFSLKLSSVTAADTAVYYCARDYDIFTGYSYYYYGMDVWGQGTTVTVSS
VL: B1 VL with T10S, S30I, N31S, H55R, S85T, Q92S, S93N, Q100G, K103R
B5: LIBC528148-1 (antibody, V domains shown)
VH: B4 VH with G37S, S58Q, N60K, S67G, F104L
VL: B1 VL
B6: LIBC527984-1 (antibody, V domains shown)
VH: B2 VH with Y52H, Q58K, K60N, E66K, G67S
VL: B1 VL with L4M
B7: LIBC527968-1 (antibody, V domains shown)
VH: B2 VH with Y52H, T56S, Q58S, N64S, E66K, G67D
VL: B1 VL
B8: LIBC528141-1 (antibody, V domains shown)
VH: B2 VH with Y52H, I53V, Q58S, N64R, E66K
VL: B1 VL
B9: LIBC527906-1 (antibody, V domains shown)
VH: B4 VH with S56T, K64N, L65F, S67D, F104L
VL: B1 VL
B10: LIBC527827-1 (antibody, V domains shown)
VH: QVQLQESGPGLVKPSQTLSLTCTVSGGSIRRGGDYWGWIRQHPGKGLEWIGHVYQSGQTAYNPKFENRATISVKTYKNQFSLKLSSVTAADTAVYYCARNYDTLTGHSYYYYGMDVWGQGTTVTVSS
VL: B1 VL with L4M
B11: LIBC523844-1 (antibody, V domains shown)
VH: B2 VH with Y52H, I53V, Q55Y, Q58S, N64S, E66K, G67D
VL: DIVMTQSPLSLPVTPGEPASISCRSSQSLLSSSGANYVDWYLQKPGQSPQLLIYQGSNRASGVPDRFSGSGSGTDFTLKISRVEAEDVGVYYCRQARALPRTFGQGTKVEIKR
B12: LIBC523760-1 (antibody, V domains shown)
VH: B2 VH with Y52H, I53V, Q58S, N64K, E66K
VL: B11 VL with S31T, Q55L, R97V, A98G, L99T
B13: LIBC523969-1 (antibody, V domains shown)
VH: B2 VH with Y52H, F65L, E66K
VL: B11 VL with S33T, V38L, R97V, A98G
B14: LIBC523862-1 (antibody, V domains shown)
VH: B2 VH with Y52H, Q58S, K60A, N64S, F65L, E66K
VL: B11 VL with S31H, S33T, Q55L, R97I
B15: LIBC523868-1 (antibody, V domains shown)
VH: B2 VH with Y52H, I53V, Q55Y, T56E, Q58S, K60A, N64S, G67D
VL: B11 VL with S31T, S33Y, A35I, Q55L, R94M, A98Q, L99I
B16: LIBC523670-1 (antibody, V domains shown)
VH: B10 VH with G37A, S56T, K64N, F65L, N67S, K74N, T103V, T105S, H107Y
VL: B11 VL with S31T, S33Y, V38L, R94M, R97L, A98Q, L99I
B17: LIBC523813-1 (antibody, V domains shown)
VH: B10 VH with G37S, Q55Y, S56T, E66K, N67D, N100D, T103I, H107Y
VL: B11 VL with Q55L, R94M, A98G, L99I
B18: LIBC523603-1 (antibody, V domains shown)
VH: B10 VH with G37A, K64N, K74N, N100D, T103A, L104V, T105S, H107Y
VL: B11 VL with S33Y, A35N, R97V, A98G
B19: LIBC528131-1 (antibody, V domains shown)
VH: B2 VH with Y52H, K60A, F65L
VL: EIVLTQSPATLSLSPGERATLSCRASQSVSSYLGWYQQKPGQAPRLLIYGASSRATGIPDRFSGSGSGTDFTLTISRLEPEDFAVYYCQQYGSSPRTFGQGTKVEIKR
B20: LIBC523748-1 (antibody, V domains shown)
VH: B2 VH with Y52H, I53V, Q55Y, Q58S, N64S, N74K
VL: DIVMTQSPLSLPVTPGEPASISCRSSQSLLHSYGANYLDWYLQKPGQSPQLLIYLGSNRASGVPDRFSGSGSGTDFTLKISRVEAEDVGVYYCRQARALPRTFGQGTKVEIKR
B21: LIBC523596-1 (antibody, V domains shown)
VH: B10 VH with G37S, K64N, N67D, K74N, N100E, T103V, L104V, T105S, H107Y
VL: B11 VL with S31T, A35Y, R94M, R97V, A98K, L99I
B22: LIBC523857-1 (antibody, V domains shown)
VH: B2 VH with Y52H, K60A, N64R, F65L
VL: B11 VL with S33T, V38L, Q55L, R97V, A98E

What follows are binders tested against human cannabinoid receptor 1 (huCB1), full length, expressed on cells (human, UniProt P21554 1-472) (assay: cell-based or functional assay).
Chain of human cannabinoid receptor 1 (huCB1), full length, expressed on cells (P21554 whole entry): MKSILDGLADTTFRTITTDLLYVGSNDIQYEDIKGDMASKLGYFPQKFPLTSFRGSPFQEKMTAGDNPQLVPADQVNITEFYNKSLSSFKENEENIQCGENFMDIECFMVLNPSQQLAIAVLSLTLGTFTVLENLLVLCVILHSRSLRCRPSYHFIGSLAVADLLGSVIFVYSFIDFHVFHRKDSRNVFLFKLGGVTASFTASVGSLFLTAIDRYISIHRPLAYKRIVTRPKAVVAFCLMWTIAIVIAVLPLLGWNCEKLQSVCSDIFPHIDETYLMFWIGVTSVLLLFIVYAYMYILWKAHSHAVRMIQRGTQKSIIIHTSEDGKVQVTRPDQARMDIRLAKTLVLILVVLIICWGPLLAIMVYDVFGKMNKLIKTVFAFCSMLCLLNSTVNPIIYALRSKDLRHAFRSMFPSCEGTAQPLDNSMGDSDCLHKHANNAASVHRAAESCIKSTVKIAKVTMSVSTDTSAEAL

Binder | Mean IC50 (nM), cAMP antagonist assay | Mean IC50, -fold vs Rimo | n = 1 IC50 (nM), cAMP antagonist assay | n = 1 IC50, -fold vs Rimo | n = 2 IC50 (nM), cAMP antagonist assay | n = 2 IC50, -fold vs Rimo
B1 | 47 nM | 15.7 fold vs Rimonabant | 57.8 nM | 13.7 fold vs Rimonabant | 36.2 nM | 20.2 fold vs Rimonabant
B2 | 3.95 nM | 1.32 fold vs Rimonabant | 5.91 nM | 1.4 fold vs Rimonabant | 1.99 nM | 1.11 fold vs Rimonabant
B3 | 7.81 nM | 2.6 fold vs Rimonabant | 12.3 nM | 2.92 fold vs Rimonabant | 3.31 nM | 1.85 fold vs Rimonabant
B4 | 3.95 nM | 1.32 fold vs Rimonabant | 6.12 nM | 1.45 fold vs Rimonabant | 1.78 nM | 0.99 fold vs Rimonabant
B5 | 5.95 nM |  | 9.1 nM |  |  | 
B6 | 4.25 nM | 1.42 fold vs Rimonabant | 7.24 nM | 1.72 fold vs Rimonabant | 1.27 nM | 0.71 fold vs Rimonabant
B7 | 4.03 nM | 1.34 fold vs Rimonabant | 6.1 nM | 1.45 fold vs Rimonabant | 1.95 nM | 1.09 fold vs Rimonabant
B8 | 4.05 nM | 1.35 fold vs Rimonabant | 6.26 nM | 1.49 fold vs Rimonabant | 1.84 nM | 1.03 fold vs Rimonabant
B9 | 5.15 nM | 1.72 fold vs Rimonabant | 7.66 nM | 1.82 fold vs Rimonabant | 2.64 nM | 1.48 fold vs Rimonabant
B10 | 23.7 nM | 7.89 fold vs Rimonabant | 32 nM | 7.6 fold vs Rimonabant | 15.3 nM | 8.54 fold vs Rimonabant
B11 | 3.83 nM | 1.28 fold vs Rimonabant | 6.2 nM | 1.47 fold vs Rimonabant | 1.46 nM | 0.82 fold vs Rimonabant
B12 | 4.28 nM | 1.43 fold vs Rimonabant | 6.12 nM | 1.45 fold vs Rimonabant | 2.44 nM | 1.36 fold vs Rimonabant
B13 | 3.86 nM | 1.29 fold vs Rimonabant | 6.45 nM | 1.53 fold vs Rimonabant | 1.26 nM | 0.7 fold vs Rimonabant
B14 | 7.31 nM | 2.44 fold vs Rimonabant | 11.2 nM | 2.66 fold vs Rimonabant | 3.42 nM | 1.91 fold vs Rimonabant
B15 | 7.59 nM | 2.53 fold vs Rimonabant | 11.9 nM | 2.81 fold vs Rimonabant | 3.32 nM | 1.86 fold vs Rimonabant
B16 | 6.12 nM | 2.04 fold vs Rimonabant | 8.72 nM | 2.07 fold vs Rimonabant | 3.52 nM | 1.97 fold vs Rimonabant
B17 | 5.95 nM | 1.98 fold vs Rimonabant | 8.96 nM | 2.13 fold vs Rimonabant | 2.94 nM | 1.64 fold vs Rimonabant
B18 | 4.72 nM | 1.57 fold vs Rimonabant | 7.29 nM | 1.73 fold vs Rimonabant | 2.16 nM | 1.2 fold vs Rimonabant
B19 | 4.23 nM | 1.41 fold vs Rimonabant | 6.63 nM | 1.57 fold vs Rimonabant | 1.83 nM | 1.02 fold vs Rimonabant
B20 | 7 nM | 2.33 fold vs Rimonabant | 9.57 nM | 2.27 fold vs Rimonabant | 4.43 nM | 2.48 fold vs Rimonabant
B21 | 8.99 nM |  |  |  | 4 nM | 
B22 | 7.94 nM | 2.65 fold vs Rimonabant | 13.4 nM | 3.18 fold vs Rimonabant | 2.48 nM | 1.39 fold vs Rimonabant
